Measured values taken from paper doi:10.1101/181321 (bioRxiv, 2017).

T1: C-terminal region of human Importin4 (C-Importin4, residues 668 to 1081) (human, UniProt Q8TEX9 668-1081)
T1 sequence: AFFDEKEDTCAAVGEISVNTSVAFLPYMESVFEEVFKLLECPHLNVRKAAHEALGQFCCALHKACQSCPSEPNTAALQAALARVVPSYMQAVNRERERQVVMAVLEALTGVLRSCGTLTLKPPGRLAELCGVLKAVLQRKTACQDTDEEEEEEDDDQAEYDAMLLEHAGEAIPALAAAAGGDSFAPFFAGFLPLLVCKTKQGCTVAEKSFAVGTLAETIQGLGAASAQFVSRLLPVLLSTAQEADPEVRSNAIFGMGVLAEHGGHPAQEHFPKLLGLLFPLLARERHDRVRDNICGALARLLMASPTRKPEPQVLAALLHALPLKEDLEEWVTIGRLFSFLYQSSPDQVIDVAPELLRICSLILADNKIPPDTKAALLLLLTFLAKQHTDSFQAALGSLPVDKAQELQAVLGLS


Assays:
[1] = biological target: C-terminal biotinylated histone H3 peptide (1 to 35 a.a.) (UniProt P68431); assay: SPR
[2] = biological target: T1, C-terminal region of human Importin4 …; assay: SPR

Kd [1]	binding result [2]	Molecule
1600 nM	–	C-terminal region of human Importin4 (C-Importin4, residues 668 to 1081) (from UniProt Q8TEX9 668-1081) (domain or fragment)
–	binds	ARTKQTARKSTGGKAPRK [histone H3 peptide (1-18 a.a.)]
